Broadly, the EC50 is the concentration needed to bring the measured effect to its halfway point. In general, Kd refers to the equilibrium constant for the complex coming apart. For orientation: koff means the rate constant with which the complex falls apart. What is called kon is the rate constant with which the complex forms. A word on the EC50 (read off the curve): it is the concentration that produces a half-maximal response. A high value points to weaker potency.

Where two headings read alike, the source gives them in different places.

Test [1] addresses T1, human Fibroblast Activation Protein (FAP) expressed on cells (human, UniProt Q12884 1-760).
T1 construct: cell surface FAP on transfected HEK cells or NIH/3T3-huFAP clone 19 fibroblasts; also called huFAP; human FAP-transfected HEK cells
Description: flow cytometry, human FAP-transfected HEK cells. In general terms: In flow cytometry, cells or beads pass a laser one at a time.

In test [2] the target is T2, human OX40 on cells (human, UniProt P43489 29-277).
T2 construct: also called CD134
T2 sequence: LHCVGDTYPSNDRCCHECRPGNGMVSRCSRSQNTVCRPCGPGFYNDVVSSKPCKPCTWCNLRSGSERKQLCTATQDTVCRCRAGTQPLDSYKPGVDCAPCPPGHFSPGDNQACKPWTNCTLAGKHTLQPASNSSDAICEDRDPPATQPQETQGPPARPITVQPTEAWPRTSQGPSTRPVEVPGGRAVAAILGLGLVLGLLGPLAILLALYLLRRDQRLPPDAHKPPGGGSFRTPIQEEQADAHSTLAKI
Description: flow cytometry, activated human CD4+ T cells.

For test [3], the target named is T1, human Fibroblast Activation Protein …. Put plainly: flow cytometry, NIH/3T3-huFAP clone 19 cells.
Test [4] deals with T2, human OX40 on cells. Put plainly: cell-based or functional assay.
Test [5] has as its target T2, human OX40 on cells. Put plainly: cell-based or functional assay. This is another data set of the same source.
Test [6] has as its target T3, FcRn (biotinylated, coupled to streptavidin-sepharose).
T3 construct: also called neonatal Fc receptor
Put plainly: FcRn affinity chromatography, pH gradient, retention compared to standards.

Test [7] addresses T2, human OX40 on cells. Description: cell-based or functional assay. This is another data set of the same source.
For test [8], the target named is T4, biotinylated human OX40 (human, UniProt P43489 29-214, limits assumed, biotinylated).
T4 sequence: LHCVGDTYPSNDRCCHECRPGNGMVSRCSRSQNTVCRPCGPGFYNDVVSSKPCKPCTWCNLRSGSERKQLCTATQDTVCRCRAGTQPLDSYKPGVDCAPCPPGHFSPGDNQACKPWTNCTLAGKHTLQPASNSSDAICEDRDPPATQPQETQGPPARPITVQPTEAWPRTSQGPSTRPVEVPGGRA
Description: SPR, stressed against unstressed sample, normalised to anti-hu IgG capture. A general note: Surface plasmon resonance follows binding to a sensor surface in real time, without labels.

Test [9] deals with T5, biotinylated recombinant human FAP (human, UniProt Q12884 27-760, biotinylated).
T5 construct: the Biacore paragraphs only say biotinylated (recombinant) human FAP; also called biotinylated human FAP; recombinant huFAP
Described as above.

Test [10] deals with T2, human OX40 on cells. Put plainly: cell-based or functional assay. This is another data set of the same source.
Test [11] deals with T5, biotinylated recombinant human FAP. Put plainly: SPR (Biacore), biotinylated huFAP on CAP chip, Fab as analyte, 1:1 fit.
Test [12] has the same target. Description: SPR (Biacore), biotinylated recombinant FAP.
Test [13] has as its target T6, human DPP-IV expressed on transfected HEK cells (human, UniProt P27487 1-766).
T6 construct: whole, on cells; also called dipeptidyl peptidase IV
Description: flow cytometry, human DPPIV-transfected HEK cells.

The target of test [14] is T7, cynomolgus FAP expressed on cells (cynomolgus).
T7 construct: whole, on cells
Put plainly: flow cytometry, FAP-transfected HEK cells.

The target of test [15] is T1, human Fibroblast Activation Protein …. Put plainly: flow cytometry, FAP-transfected HEK cells.
For test [16], the target named is biotinylated recombinant cynomolgus FAP (cynomolgus, UniProt Q12884 27-760 (human entry), limits assumed, biotinylated). Put plainly: SPR (Biacore), biotinylated recombinant FAP.
The target of test [17] is T2, human OX40 on cells. Put plainly: cell-based or functional assay. The source holds these as a separate data set.
For test [18], the target named is T2, human OX40 on cells. Put plainly: flow cytometry, activated human PBMC gated on CD8+ T cells (OX40 positive), FITC anti-human Fcγ secondary, MFI baseline corrected.
Test [19] has as its target T2, human OX40 on cells. Description: cell-based or functional assay. This is another data set of the same source.

T3 sequence (P55899 24-297, chain 1 of 2): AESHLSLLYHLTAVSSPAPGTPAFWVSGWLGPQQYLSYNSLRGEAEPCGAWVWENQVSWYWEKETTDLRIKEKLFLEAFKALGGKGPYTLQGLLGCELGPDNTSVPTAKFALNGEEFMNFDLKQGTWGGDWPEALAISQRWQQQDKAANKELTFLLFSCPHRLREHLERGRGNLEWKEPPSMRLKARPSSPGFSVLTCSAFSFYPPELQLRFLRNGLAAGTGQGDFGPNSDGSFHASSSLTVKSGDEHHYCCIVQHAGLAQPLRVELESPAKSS
T3 sequence (P61769 21-119, chain 2 of 2, further chain): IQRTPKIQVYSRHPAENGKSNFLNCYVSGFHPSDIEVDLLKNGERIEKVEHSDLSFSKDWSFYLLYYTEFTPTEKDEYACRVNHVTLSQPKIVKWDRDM
T6 sequence (P27487 whole entry): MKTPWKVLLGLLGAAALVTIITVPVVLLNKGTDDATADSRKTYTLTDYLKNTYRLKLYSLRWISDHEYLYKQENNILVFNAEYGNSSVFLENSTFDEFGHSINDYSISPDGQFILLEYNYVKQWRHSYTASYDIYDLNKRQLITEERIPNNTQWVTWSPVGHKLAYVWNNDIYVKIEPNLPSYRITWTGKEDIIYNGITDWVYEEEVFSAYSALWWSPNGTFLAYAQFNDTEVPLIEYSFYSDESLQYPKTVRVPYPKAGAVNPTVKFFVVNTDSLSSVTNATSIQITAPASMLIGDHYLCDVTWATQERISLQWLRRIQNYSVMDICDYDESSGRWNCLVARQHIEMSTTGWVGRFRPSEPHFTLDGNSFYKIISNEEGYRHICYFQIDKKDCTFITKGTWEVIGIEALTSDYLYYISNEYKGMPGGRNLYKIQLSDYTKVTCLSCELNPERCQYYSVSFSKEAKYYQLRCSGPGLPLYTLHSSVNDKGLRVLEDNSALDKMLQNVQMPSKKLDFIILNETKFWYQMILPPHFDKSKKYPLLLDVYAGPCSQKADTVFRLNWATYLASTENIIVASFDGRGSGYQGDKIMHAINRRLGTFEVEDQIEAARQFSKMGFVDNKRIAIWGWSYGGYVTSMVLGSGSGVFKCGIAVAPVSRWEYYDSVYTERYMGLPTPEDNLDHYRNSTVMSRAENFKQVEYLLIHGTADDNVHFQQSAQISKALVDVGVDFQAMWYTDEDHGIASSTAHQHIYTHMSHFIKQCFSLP

B1: anti-FAP antibody 4B9 (antibody, V domains shown)
VH: EVQLLESGGGLVQPGGSLRLSCAASGFTFSSYAMSWVRQAPGKGLEWVSAIIGSGASTYYADSVKGRFTISRDNSKNTLYLQMNSLRAEDTAVYYCAKGWFGGFNYWGQGTLVTVSS
VL: EIVLTQSPGTLSLSPGERATLSCRASQSVTSSYLAWYQQKPGQAPRLLINVGSRRATGIPDRFSGSGSGTDFTLTISRLEPEDFAVYYCQQGIMLPPTFGQGTKVEIK
notes: made as in WO 2012/020006; also called FAP clone 4B9; AlexaFluor647-labeled anti FAP antibody 4B9
On to B1, for which the EC50 in test [1] worked out at 0.089 µg/mL.

B2: P1AF6455 OX40(CLC563) x FAP (1G1a_EPKSCS) (3 + 1) C-terminal crossfab fusion (bispecific antibody, human IgG1, kappa, L234A L235A)
heavy 1: not shown
heavy 2: not shown
light 1: not shown
light 2: EIVLTQSPATLSLSPGERATLSCRASESVDNYGLSFINWFQQKPGQAPRLLIYGTSNRGSGIPARFSGSGSGTDFTLTISSLEPEDFAVYFCQQSNEVPYTFGGGTKVEIKSSASTKGPSVFPLAPSSKSTSGGTAALGCLVKDYFPEPVTVSWNSGALTSGVHTFPAVLQSSGLYSLSSVVTVPSSSLGTQTYICNVNHKPSNTKVDKKVEPKSCS
notes: also called CLC-563, S-variant 3+1; C2
The molecule B2 yielded an EC50 in [2] of 1470 pM. It took 1710 pM to reach a half-maximal effect in test [3] (EC50). The “EC50 of increased CEACAM5 TCB mediated cytokine secretion of human PBMC with FAP+ fibroblasts” value in test [4] was 58 pM. The “EC50 of suppression of TGFβ-induced FoxP3 (FoxP3 MFI) on CD4+ CD25+ Treg cells, FAP-coated beads” value in test [5] turned out to be 250 pM. The “FcRn affinity (relative retention)” value in [6] was -0.1. In addition, in test [7], the “EC50 of NFκB activation, HeLa_hOx40_NFkB_Luc1, w/ hu FAP+ fibroblasts” value (“EC50 of NFκB activation … w/ hu FAP+ fibroblasts” below) turned out to be 200 pM and the “EC50 of NFκB activation, HeLa_hOx40_NFkB_Luc1, w/o crosslinking” value (“EC50 of NFκB activation … w/o crosslinking” below) was 800 pM. Further, in [8], the “binding activity [%] after 2 weeks at pH 6.0/40°C” value stood at 100% and the “binding activity [%] after 2 weeks at pH 7.4/37°C” value was 100%. In test [9], the “binding activity [%] after 2 weeks at pH 6.0/40°C” value is 98% and the “binding activity [%] after 2 weeks at pH 7.4/37°C” value amounted to 96%. Further, in test [10], the “EC50 of CD25 upregulation on CD4+ T cells, suboptimal TCR stimulation of human PBMC with FAP+ fibroblasts” value (“EC50 of CD25 upregulation” below) stood at 3 pM.

B3: P1AF6454 OX40(CLC563) x FAP (1G1a_EPKSCD) (3 + 1) C-terminal crossfab fusion (bispecific antibody, human IgG1, kappa, L234A L235A)
heavy 1: not shown
heavy 2: not shown
light 1: not shown
light 2: EIVLTQSPATLSLSPGERATLSCRASESVDNYGLSFINWFQQKPGQAPRLLIYGTSNRGSGIPARFSGSGSGTDFTLTISSLEPEDFAVYFCQQSNEVPYTFGGGTKVEIKSSASTKGPSVFPLAPSSKSTSGGTAALGCLVKDYFPEPVTVSWNSGALTSGVHTFPAVLQSSGLYSLSSVVTVPSSSLGTQTYICNVNHKPSNTKVDKKVEPKSCD
notes: also called CLC-563, D-variant 3+1; 3+1 CLC563/H212-D
On to B3, for which the EC50 in test [2] was 1640 pM; in test [3], 1220 pM. The “EC50 of increased CEACAM5 TCB mediated cytokine secretion of human PBMC with FAP+ fibroblasts” value in test [4] turned out to be 144 pM. For the same molecule, in [5], the “EC50 of suppression of TGFβ-induced FoxP3 (FoxP3 MFI) on CD4+ CD25+ Treg cells, FAP-coated beads” value is 110 pM. Further, the “FcRn affinity (relative retention)” value in test [6] is -0.1. In addition, the “EC50 of NFκB activation … w/ hu FAP+ fibroblasts” value in test [7] is 200 pM. Moreover, the “EC50 of NFκB activation … w/o crosslinking” value in test [7] came out at 1900 pM. Also, the “binding activity [%] after 2 weeks at pH 6.0/40°C” value in test [8] was found to be 100%; in [9] it was 99%. Further, the entries for the “binding activity [%] after 2 weeks at pH 7.4/37°C” value in test [8] and in test [9] were 99% and 95%, respectively. In test [10], the “EC50 of CD25 upregulation” value was 1 pM.

B4: P1AD9438_Fab, anti-FAP clone 212 Fab (Fab, V domains shown)
VH: EVLLQQSGPELVKPGASVKIACKASGYTLTDYNMDWVRQSHGKSLEWIGDIYPNTGGTIYNQKFKGKATLTIDKSSSTAYMDLRSLTSEDTAVYYCTRFRGIHYAMDYWGQGTSVTVSS
VL: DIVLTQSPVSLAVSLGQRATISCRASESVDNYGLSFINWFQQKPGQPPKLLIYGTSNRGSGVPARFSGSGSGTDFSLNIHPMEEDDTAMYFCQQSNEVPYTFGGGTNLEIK
notes: Fab; also called 212 free Fab
Take B4: in test [11], the Kd is < 10 pM, the koff is < 1e-06 s⁻¹ and the kon came out at 1.06e+06 M⁻¹ s⁻¹. The Kd in test [12] amounted to 120 pM.

B5: anti-human FAP clone 212, hybridoma-derived murine antibody (antibody, V domains shown)
VH: EVLLQQSGPELVKPGASVKIACKASGYTLTDYNMDWVRQSHGKSLEWIGDIYPNTGGTIYNQKFKGKATLTIDKSSSTAYMDLRSLTSEDTAVYYCTRFRGIHYAMDYWGQGTSVTVSS
VL: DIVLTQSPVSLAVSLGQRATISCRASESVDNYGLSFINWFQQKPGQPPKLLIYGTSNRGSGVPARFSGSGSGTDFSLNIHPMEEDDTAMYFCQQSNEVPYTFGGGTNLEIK
notes: mu IgG1
As for B5, the binding result in test [13] is “no binding (tested: 10 µg/ml)”.

B6: P1AD9438, anti-FAP clone 212 as huIgG1 P329G LALA antibody (antibody, V domains shown)
VH: EVLLQQSGPELVKPGASVKIACKASGYTLTDYNMDWVRQSHGKSLEWIGDIYPNTGGTIYNQKFKGKATLTIDKSSSTAYMDLRSLTSEDTAVYYCTRFRGIHYAMDYWGQGTSVTVSS
VL: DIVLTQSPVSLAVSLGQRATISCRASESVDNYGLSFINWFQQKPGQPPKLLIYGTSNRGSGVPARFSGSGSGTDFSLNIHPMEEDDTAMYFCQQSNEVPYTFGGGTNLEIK
notes: human IgG1 with P329G, L234A, L235A; also called 212 IgG
With B6, the EC50 in test [1] is 0.118 µg/mL; in [14], 0.3 µg/mL; in test [15], 0.12 µg/mL. Also, the Kd in test [16] was 140 pM.

B7: anti-FAP clone 212, C-terminal Fab fusion construct (Fc fusion)
chain 1: EVLLQQSGPELVKPGASVKIACKASGYTLTDYNMDWVRQSHGKSLEWIGDIYPNTGGTIYNQKFKGKATLTIDKSSSTAYMDLRSLTSEDTAVYYCTRFRGIHYAMDYWGQGTSVTVSS
chain 2: not shown
Turning to B7, the EC50 in test [15] turned out to be 2.8 µg/mL. The dissociation constant (Kd) was found to be 640 pM in test [16] and 620 pM in test [12].

B8: P1AE8874 OX40(CLC563) x FAP (1G1a) (3 + 1) C-terminal crossfab fusion (bispecific antibody, human IgG1, kappa, L234A L235A)
heavy 1: not shown
heavy 2: not shown
light 1: not shown
light 2: EIVLTQSPATLSLSPGERATLSCRASESVDNYGLSFINWFQQKPGQAPRLLIYGTSNRGSGIPARFSGSGSGTDFTLTISSLEPEDFAVYFCQQSNEVPYTFGGGTKVEIKSSASTKGPSVFPLAPSSKSTSGGTAALGCLVKDYFPEPVTVSWNSGALTSGVHTFPAVLQSSGLYSLSSVVTVPSSSLGTQTYICNVNHKPSNTKVDKKVEPKSC
notes: also called CLC-563 3+1
The molecule B8 gave an EC50 in [2] of 3620 pM. The molecule also returned an EC50 in [3] of 2520 pM. In addition, in test [17], the “AUC of CD25 upregulation compared to reference compound [%]” value came out at 100% and the “EC50 of CD25 upregulation” value was 40 pM. Moreover, the “EC50 (read off the curve)” value in [18] was ~3000 pM. Moreover, in test [19], the “EC50 of NFκB activation … w/ hu FAP+ fibroblasts” value was determined as 240 pM and the “EC50 of NFκB activation … w/o crosslinking” value came to 790 pM. In test [6], the “FcRn affinity (relative retention)” value is -0.14. Besides, in test [8], the “binding activity [%] after 2 weeks at pH 6.0/40°C” value is > 90% and the “binding activity [%] after 2 weeks at pH 7.4/37°C” value is > 90%. For the same molecule, in [9], the “binding activity [%] after 2 weeks at pH 6.0/40°C” value was > 90% and the “binding activity [%] after 2 weeks at pH 7.4/37°C” value is > 90%.

B9: P1AE8871 OX40(CLC563) x FAP (1G1a) (2 + 1) C-terminal crossfab fusion (bispecific antibody, human IgG1, kappa, L234A L235A)
heavy 1: not shown
heavy 2: not shown
light 1: not shown
light 2: EIVLTQSPATLSLSPGERATLSCRASESVDNYGLSFINWFQQKPGQAPRLLIYGTSNRGSGIPARFSGSGSGTDFTLTISSLEPEDFAVYFCQQSNEVPYTFGGGTKVEIKSSASTKGPSVFPLAPSSKSTSGGTAALGCLVKDYFPEPVTVSWNSGALTSGVHTFPAVLQSSGLYSLSSVVTVPSSSLGTQTYICNVNHKPSNTKVDKKVEPKSC
notes: also called CLC-563 2+1
The molecule B9 gave an EC50 in [2] of 3190 pM. This molecule returned an EC50 in test [3] of 2510 pM. In test [17], the “AUC of CD25 upregulation compared to reference compound [%]” value stood at 99% and the “EC50 of CD25 upregulation” value turned out to be 60 pM. Also, the “EC50 (read off the curve)” value in [18] was ~2000 pM. The “EC50 of NFκB activation … w/ hu FAP+ fibroblasts” value in test [19] amounted to 210 pM.
